Assays:
[1] = target: fluorescein-labeled TGN38 YxxΦ peptide (ASDYQRL); test: fluorescence polarisation; stopped-flow polarized fluorescence, pre-steady-state kinetics; AP2 preincubated for 30 min with 200 μM heparin; 1 μM fluorescein peptide
[2] = target: fluorescein-labeled TGN38 YxxΦ peptide (ASDYQRL); test: fluorescence polarisation; equilibrium anisotropy titration with 500 μM polymeric heparin (~50 subunits); 20 nM fluorescein peptide; 21°C; 10 mM Tris pH 8.7, 250 mM NaCl
[3] = target: fluorescein-labeled TGN38 YxxΦ peptide (ASDYQRL); test: fluorescence polarisation; stopped-flow polarized fluorescence, pre-steady-state kinetics, without heparin; 1 μM fluorescein peptide, protein at pseudo-first order excess; single exponential fits, kapp = koff + kon.C
[4] = target: lipid-linked TGN38 sorting motif peptide (…) displayed in liposomes; test: SPR; settings: for Kd: 10% PtdIns4,5P2 + 1% TGN38 liposomes, five AP2 concentrations ranging from 50 nM to 1 μM
[5] = target: lipid-linked phosphorylated CD4 dileucine sorting signal peptide (…(SP)…) displayed in liposomes; test: SPR; settings: for Kd: 10% PtdIns4,5P2 + 1% CD4P liposomes, five AP2 concentrations ranging from 50 nM to 1 μM
[6] = target: liposomes displaying both TGN38 YxxΦ peptide (m4) and CD4 dileucine peptide (m5); test: SPR; settings: 10% PtdIns4,5P2 + 0.5% TGN38 + 0.5% CD4 liposomes; five AP2 concentrations ranging from 50 nM to 1 μM
[7] = target: liposomes containing 10% PtdIns4,5P2 (no cargo peptide); test: SPR; settings: 10% PtdIns4,5P2 liposomes; five AP2 concentrations ranging from 50 nM to 1 μM
[8] = target: lipid-linked TGN38 sorting motif peptide (…) displayed in liposomes; test: not stated; unpublished data (S.H.); binding of AP2 cores to YxxΦ/PtdIns4,5P2-containing liposomes
[9] = target: lipid-linked TGN38 sorting motif peptide (…) displayed in liposomes; test: SPR; peptido-liposomes with 10% PtdIns4,5P2 and lipid-linked peptide captured on an L1 sensor surface (BIAcore 3000, T100); AP2 cores injected; 10 mM Tris pH 8.7, 250 mM NaCl, 1 mM DTT; corrected for binding to PC/PE or PtdIns4,5P2 liposomes; apparent
[10] = target: lipid-linked phosphorylated CD4 dileucine sorting signal peptide (…(SP)…) displayed in liposomes; test: as above
Target sequence in this assay (peptide, as listed by the source): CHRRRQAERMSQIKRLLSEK

AP2 core (recombinant; α trunk, β2 trunk, myc-tagged μ2, σ2) (from UniProt P63010;P84092;P62743) αPIP- (substitutions in the PtdIns4,5P2-binding site of α; not printed), sequence (P62743 whole entry, looked up, stated change not applied): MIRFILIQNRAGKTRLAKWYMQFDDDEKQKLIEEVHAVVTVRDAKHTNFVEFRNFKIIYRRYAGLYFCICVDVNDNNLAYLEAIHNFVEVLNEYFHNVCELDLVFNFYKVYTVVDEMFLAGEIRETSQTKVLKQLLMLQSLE
AP2 core (recombinant; α trunk, β2 trunk, myc-tagged μ2, σ2) (from UniProt P63010;P84092;P62743) αPIP- (substitutions in the PtdIns4,5P2-binding site of α; not printed), sequence (P84092 whole entry, looked up, stated change not applied): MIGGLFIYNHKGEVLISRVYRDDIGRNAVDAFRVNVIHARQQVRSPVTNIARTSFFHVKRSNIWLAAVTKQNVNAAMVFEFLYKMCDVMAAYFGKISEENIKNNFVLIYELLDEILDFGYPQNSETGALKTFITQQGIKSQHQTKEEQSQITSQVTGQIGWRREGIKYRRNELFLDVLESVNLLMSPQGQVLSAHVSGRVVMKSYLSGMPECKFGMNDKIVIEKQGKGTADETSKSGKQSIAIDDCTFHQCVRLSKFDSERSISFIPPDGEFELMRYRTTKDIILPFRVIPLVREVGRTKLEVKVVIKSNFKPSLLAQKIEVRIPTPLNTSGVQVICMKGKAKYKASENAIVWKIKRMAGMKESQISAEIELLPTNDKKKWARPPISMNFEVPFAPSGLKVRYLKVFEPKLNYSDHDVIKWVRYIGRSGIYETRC
AP2 core (recombinant; α trunk, β2 trunk, myc-tagged μ2, σ2) (from UniProt P63010;P84092;P62743) αPIP- (substitutions in the PtdIns4,5P2-binding site of α; not printed), sequence (P63010 whole entry, looked up, stated change not applied): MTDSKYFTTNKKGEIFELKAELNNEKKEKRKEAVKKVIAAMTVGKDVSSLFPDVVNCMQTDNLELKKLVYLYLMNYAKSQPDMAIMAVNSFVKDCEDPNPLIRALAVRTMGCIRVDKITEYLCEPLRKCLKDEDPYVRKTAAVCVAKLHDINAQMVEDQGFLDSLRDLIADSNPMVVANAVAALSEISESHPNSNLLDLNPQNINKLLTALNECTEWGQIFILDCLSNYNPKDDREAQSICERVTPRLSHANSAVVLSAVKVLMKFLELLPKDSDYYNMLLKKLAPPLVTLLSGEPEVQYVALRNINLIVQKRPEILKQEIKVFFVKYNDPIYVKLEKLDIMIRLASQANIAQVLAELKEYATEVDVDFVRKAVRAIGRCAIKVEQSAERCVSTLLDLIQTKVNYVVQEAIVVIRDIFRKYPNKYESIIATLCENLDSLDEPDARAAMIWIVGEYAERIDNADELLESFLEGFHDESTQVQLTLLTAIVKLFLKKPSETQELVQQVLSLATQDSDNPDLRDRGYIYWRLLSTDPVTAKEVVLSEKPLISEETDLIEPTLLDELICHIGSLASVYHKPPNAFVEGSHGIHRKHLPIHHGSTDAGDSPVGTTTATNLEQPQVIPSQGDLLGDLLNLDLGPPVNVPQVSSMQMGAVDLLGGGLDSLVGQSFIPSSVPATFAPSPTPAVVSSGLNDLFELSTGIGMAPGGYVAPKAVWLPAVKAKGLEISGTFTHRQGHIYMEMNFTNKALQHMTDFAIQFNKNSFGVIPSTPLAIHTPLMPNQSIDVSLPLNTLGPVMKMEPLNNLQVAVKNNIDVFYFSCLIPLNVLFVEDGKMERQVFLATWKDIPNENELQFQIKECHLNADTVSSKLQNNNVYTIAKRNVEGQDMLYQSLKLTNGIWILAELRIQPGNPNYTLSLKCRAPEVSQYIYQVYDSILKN
AP2 core (recombinant; α trunk, β2 trunk, myc-tagged μ2, σ2) (from UniProt P63010;P84092;P62743) μ2PIP- (μ2 5K>E and μ2 KRR>E combined; individual residues not printed), sequence (P62743 whole entry, looked up, change not shown): as the sequence (P62743 whole entry, looked up, stated change not applied) above
AP2 core (recombinant; α trunk, β2 trunk, myc-tagged μ2, σ2) (from UniProt P63010;P84092;P62743) μ2PIP- (μ2 5K>E and μ2 KRR>E combined; individual residues not printed), sequence (P84092 whole entry, looked up, change not shown): as the sequence (P84092 whole entry, looked up, stated change not applied) above
AP2 core (recombinant; α trunk, β2 trunk, myc-tagged μ2, σ2) (from UniProt P63010;P84092;P62743) μ2PIP- (μ2 5K>E and μ2 KRR>E combined; individual residues not printed), sequence (P63010 whole entry, looked up, change not shown): as the sequence (P63010 whole entry, looked up, stated change not applied) above
μ2^PIP-Core (AP2 core with the μ2 mutations 5K>E and KRR>E combined), sequence (P62743 whole entry, looked up, change not shown): as the sequence (P62743 whole entry, looked up, stated change not applied) above
μ2^PIP-Core (AP2 core with the μ2 mutations 5K>E and KRR>E combined), sequence (P84092 whole entry, looked up, change not shown): as the sequence (P84092 whole entry, looked up, stated change not applied) above
μ2^PIP-Core (AP2 core with the μ2 mutations 5K>E and KRR>E combined), sequence (P63010 whole entry, looked up, change not shown): as the sequence (P63010 whole entry, looked up, stated change not applied) above
AP2 core (recombinant; α trunk, β2 trunk, myc-tagged μ2, σ2) (from UniProt P63010;P84092;P62743) β2:K5E; β2:K12E; β2:K26E; β2:K27E; β2:K29E; β2:K36E, sequence (P62743 whole entry, looked up, stated change not applied): as the sequence (P62743 whole entry, looked up, stated change not applied) above
AP2 core (recombinant; α trunk, β2 trunk, myc-tagged μ2, σ2) (from UniProt P63010;P84092;P62743) β2:K5E; β2:K12E; β2:K26E; β2:K27E; β2:K29E; β2:K36E, sequence (P84092 whole entry, looked up, stated change not applied): as the sequence (P84092 whole entry, looked up, stated change not applied) above
AP2 core (recombinant; α trunk, β2 trunk, myc-tagged μ2, σ2) (from UniProt P63010;P84092;P62743) β2:K5E; β2:K12E; β2:K26E; β2:K27E; β2:K29E; β2:K36E, sequence (P63010 whole entry, looked up, stated change not applied): as the sequence (P63010 whole entry, looked up, stated change not applied) above

“AP2 core (recombinant; α trunk, β2 trunk, myc-tagged μ2, σ2) (from UniProt P63010 1-592; P84092 1-236; P84092 237-435; P62743 1-142) (complex)” showed a Kd [1] of 3.5 µM, a koff [1] of 2 s⁻¹ and a kon [1] of 1e+06 M⁻¹ s⁻¹. It also gave a relaxation time at 15 μM AP2 with heparin [1] of 0.059 s, a relaxation time with heparin [1] of 0.056 s and a Kd [2] of 3.4 µM. For the same substance, the Kd [3] was 4000 µM and the relaxation time at 30 μM AP2 without heparin [3] was 62.5 s.

“AP2 core (recombinant; α trunk, β2 trunk, myc-tagged μ2, σ2) (from UniProt P63010;P84092;P62743) αPIP- (substitutions in the PtdIns4,5P2-binding site of α; not printed)” was tested, and the response ([4]; 200 nM AP2 core, PtdIns4,5P2/TGN38 liposomes, corrected for non-specific binding to PC/PE liposomes, baseline about 80 RU, parent: est. 1800, read off a plot) was 330 RU, the Kd [4] was > 30 µM and the response ([5]; 200 nM AP2 core, PtdIns4,5P2/CD4P liposomes, corrected for non-specific binding to PC/PE liposomes, baseline about 40 RU, parent: est. 1400, read off a plot) was 180 RU. For the same substance, the Kd [6] was > 30 µM.

“AP2 core (recombinant; α trunk, β2 trunk, myc-tagged μ2, σ2) (from UniProt P63010;P84092;P62743) β2:K5E; β2:K12E; β2:K26E; β2:K27E; β2:K29E; β2:K36E” was tested, and the Kd [6] was > 30 µM.

“AP2 core (recombinant; α trunk, β2 trunk, myc-tagged μ2, σ2) (from UniProt P63010;P84092;P62743) μ2 5K>E (five lysines of the second basic region of C-μ2 to glutamate; residues not printed)” showed a Kd [4] of 0.52 µM, a Kd [5] of 0.95 µM and a Kd [7] of 11 µM.

“AP2 core (recombinant; α trunk, β2 trunk, myc-tagged μ2, σ2) (from UniProt P63010;P84092;P62743) μ2 KRR>E (three basic residues of the third basic region of C-μ2 to glutamate; residues not printed)” gave a Kd [4] of 0.33 µM, a Kd [5] of 0.85 µM and a Kd [7] of 7.5 µM.

“AP2 core (recombinant; α trunk, β2 trunk, myc-tagged μ2, σ2) (from UniProt P63010;P84092;P62743) μ2PIP- (μ2 5K>E and μ2 KRR>E combined; individual residues not printed)” gave a Kd [4] of 6.2 µM, a Kd [5] of 2.5 µM and a Kd [7] of 30 µM. The Kd [6] was 0.28 µM.

“isolated C-terminal domain of μ2 (C-μ2) (from UniProt P84092 1-435) (domain or fragment)” showed a Kd [3] of 0.5 µM and a relaxation time at 15 μM C-μ2 [3] of 0.0073 s.

Substance “μ2Thr156Glu AP2 core (from UniProt P63010 1-592; P84092 1-236; P84092 237-435; P62743 1-142) (complex)” has a fold less binding than phosphorylated AP2 core [8] of 20 fold and a fold weaker binding than wild-type core [8] of 4 fold.

For “μ2^PIP-Core (AP2 core with the μ2 mutations 5K>E and KRR>E combined) (from UniProt P63010 1-592; P84092 1-236; P84092 237-435; P62743 1-142) (complex)”, the fold inhibition of binding to PtdIns4,5P2/YxxΦ liposomes against the wild-type core [9] was 20 fold and the fold reduction of binding to PtdIns4,5P2/[ED]xxxL[LI] liposomes against the wild-type core [10] was 3 fold.

From publication PMC3655264, “A Large-Scale Conformational Change Couples Membrane Recruitment to Cargo Binding in the AP2 Clathrin Adaptor Complex” (Cell, 2010)
